The source of these data is PMC3394778, “Ubiquitylation of Terminal Deoxynucleotidyltransferase Inhibits Its Activity” (PLoS ONE, 2012).

The chains are these.
B1: GST-TdT (terminal deoxynucleotidyltransferase) (natural protein)
chain: MDPLCTASSGPRKKRPRQVGASMASPPHDIKFQNLVLFILEKKMGTTRRNFLMELARRKGFRVENELSDSVTHIVAENNSGSEVLEWLQVQNIRASSQLELLDVSWLIESMGAGKPVEITGKHQLVVRTDYSATPNPGFQKTPPLAVKKISQYACQRKTTLNNYNHIFTDAFEILAENSEFKENEVSYVTFMRAASVLKSLPFTIISMKDTEGIPCLGDKVKCIIEEIIEDGESSEVKAVLNDERYQSFKLFTSVFGVGLKTSEKWFRMGFRSLSKIMSDKTLKFTKMQKAGFLYYEDLVSCVTRAEAEAVGVLVKEAVWAFLPDAFVTMTGGFRRGKKIGHDVDFLITSPGSAEDEEQLLPKVINLWEKKGLLLYYDLVESTFEKFKLPSRQVDTLDHFQKCFLILKLHHQRVDSSKSNQQEGKTWKAIRVDLVMCPYENRAFALLGWTGSRQFERDIRRYATHERKMMLDNHALYDKTKRVFLKAESEEEIFAHLGLDYIEPWERNA
notes: Terminal deoxynucleotidyltransferase (TdT), bovine; cDNA isolated from a bovine thymus cDNA library; wild type; source: E. coli BL21(DE3)pLysS Rosetta2, purified (Glutathione Sepharose 4B)

Details in all cases: both partners purified
Test [1] addresses T1, His-UbcH5b (human, UniProt P62837 1-147).
T1 construct: UbcH5b (E2), human; cDNA amplified from a human thymus cDNA library; also called UbcH5 isoforms; source: E. coli BL21(DE3), purified (Ni Sepharose 6 Fast Flow)
Put plainly: pull-down; GST-TdT coupled to Glutathione Sepharose 4B as bait, His-tagged proteins added for 1 h (coupling at 4°C); binding buffer A: 50 mM Tris-HCl pH 7.4, 150 mM NaCl, 2.5 mM MgCl2, 1% TritonX-100, 10% glycerol, 1 mM DTT; immunoblot with anti-His; Figure 2A with or without His-Ub. On the technique in general: Immunoblotting shows a protein as a band on a membrane.

Test [2] has as its target B1. Described as above.
The target in test [3] is T2, His-TdT del 2 (150–509) (bovine, UniProt P06526 150-509).
T2 construct: also called C-terminal region of TdT; source: E. coli BL21(DE3)pLysS Rosetta2, purified (Ni Sepharose 6 Fast Flow)
Put plainly: pull-down; GST-UbcH5a coupled to Glutathione Sepharose 4B as bait, His-TdT deletion mutants as prey; binding buffer A: 50 mM Tris-HCl pH 7.4, 150 mM NaCl, 2.5 mM MgCl2, 1% TritonX-100, 10% glycerol, 1 mM DTT; immunoblot with anti-His.

With B1, the binding result in test [1] is “binds”.

B2: His-UbcH6 (enzyme, human, UniProt P51965 1-193, looked up)
chain: MSDDDSRASTSSSSSSSSNQQTEKETNTPKKKESKVSMSKNSKLLSTSAKRIQKELADITLDPPPNCSAGPKGDNIYEWRSTILGPPGSVYEGGVFFLDITFTPEYPFKPPKVTFRTRIYHCNINSQGVICLDILKDNWSPALTISKVLLSICSLLTDCNPADPLVGSIATQYMTNRAEHDRMARQWTKRYAT
notes: UbcH6 (E2), human; cDNA amplified from a human thymus cDNA library; source: E. coli BL21(DE3), purified (Ni Sepharose 6 Fast Flow)
Consider B2, for which, in test [2], the binding result is “binds”.

B3: His-UbcH10 (enzyme, human, UniProt O00762 1-179, looked up)
chain: MASQNRDPAATSVAAARKGAEPSGGAARGPVGKRLQQELMTLMMSGDKGISAFPESDNLFKWVGTIHGAAGTVYEDLRYKLSLEFPSGYPYNAPTVKFLTPCYHPNVDTQGNICLDILKEKWSALYDVRTILLSIQSLLGEPNIDSPLNTHAAELWKNPTAFKKYLQETYSKQVTSQEP
notes: UbcH10 (E2), human; cDNA amplified from a human thymus cDNA library; source: E. coli BL21(DE3), purified (Ni Sepharose 6 Fast Flow)
On to B3, for which the binding result in test [2] is “binds”.

B4: His-UbcH5a (wild type) (enzyme)
chain: not shown
notes: UbcH5a (ubiquitin-conjugating enzyme E2), human; cDNA amplified from a human thymus cDNA library; also called His-wtUbcH5a; wtUbcH5a; source: E. coli BL21(DE3), purified (Ni Sepharose 6 Fast Flow)
With B4, the binding result in test [2] is on record as “binds”.

B5: Ubc13/MMS2 (His-UbcH13 with His-MMS2) (complex)
chain 1: MAGLPRRIIKETQRLLAEPVPGIKAEPDESNARYFHVVIAGPQDSPFEGGTFKLELFLPEEYPMAAPKVRFMTKIYHPNVDKLGRICLDILKDKWSPALQIRTVLLSIQALLSAPNPDDPLANDVAEQWKTNEAQAIETARAWTRLYAMNNI
chain 2: not shown
notes: UbcH13 (Ubc13, E2), human; cDNA amplified from a human thymus cDNA library; MMS2, E2 variant that lacks the active cysteine, human; The two chains were expressed and purified separately; also called UbcH13-MMS2; source: E. coli BL21(DE3), each purified (Ni Sepharose 6 Fast Flow)
In the case of B5, in test [2], the binding result is recorded as “binds”.

B6: GST-UbcH5a (enzyme)
chain: not shown
notes: UbcH5a (ubiquitin-conjugating enzyme E2), human; cDNA amplified from a human thymus cDNA library; also called GST-Ubc5a; source: E. coli BL21(DE3), purified (Glutathione Sepharose 4B)
Turning to B6, in test [3], the binding result is “binds”.
